The values below come from PMC5899673.

The Kd is the constant that tells how readily two partners part at equilibrium. Lower therefore signals a tighter complex. For orientation: koff means a measure of how fast the partners let go of each other. Read a high koff as a short-lived complex. Usually kon stands for the rate constant with which the complex forms. Higher therefore signals faster complex formation.

The labels stand for the following.
B1: SPIN (Staphylococcal Peroxidase INhibitor) from S. aureus strain Newman (natural protein)
chain: KVYSQNGLVLHDDANFLEHELSYIDVLLDKNADQATKDNLRSYFADKGLHSIKDIINKAKQDGFDVSKYEHVK

The assay has as its target Native human myeloperoxidase (MPO) isolated from purulent sputum (human) (UniProt P05164). The assay is described as follows: SPR. (In general: In SPR one partner is held on a chip, and binding of the other changes the refractive index at the surface.)
UniProt P05164, sequence (P05164 165-745): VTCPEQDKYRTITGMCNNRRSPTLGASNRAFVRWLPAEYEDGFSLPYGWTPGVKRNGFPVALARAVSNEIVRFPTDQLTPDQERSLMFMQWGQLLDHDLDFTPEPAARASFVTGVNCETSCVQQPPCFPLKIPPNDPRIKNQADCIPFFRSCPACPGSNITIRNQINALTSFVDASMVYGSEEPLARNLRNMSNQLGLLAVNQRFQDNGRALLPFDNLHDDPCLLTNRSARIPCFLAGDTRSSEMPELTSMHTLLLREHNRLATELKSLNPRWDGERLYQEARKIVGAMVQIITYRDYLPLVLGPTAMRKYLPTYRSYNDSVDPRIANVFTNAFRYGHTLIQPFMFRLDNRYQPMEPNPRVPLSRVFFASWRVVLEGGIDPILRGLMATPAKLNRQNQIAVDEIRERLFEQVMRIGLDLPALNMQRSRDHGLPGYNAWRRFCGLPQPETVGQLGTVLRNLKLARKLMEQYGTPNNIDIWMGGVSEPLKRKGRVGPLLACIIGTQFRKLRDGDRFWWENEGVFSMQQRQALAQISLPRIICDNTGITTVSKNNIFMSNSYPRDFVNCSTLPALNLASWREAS
Molecule “SPIN-intermedius (SPIN homolog from S. intermedius) (natural protein)” returned a Kd of 984 nM, a koff of 0.00334 s⁻¹ and an association rate constant (kon) of 3500 M⁻¹ s⁻¹.
Taken in the same sequence, the figures for “SPIN-schleiferi (SPIN homolog from S. schleiferi) (natural protein)” were 230 nM, 0.00252 s⁻¹ and 11200 M⁻¹ s⁻¹.
Taken in the same sequence, the figures for “SPIN-delphini (SPIN from Staphylococcus delphini) (natural protein)” were 310 nM, 0.00334 s⁻¹ and 10800 M⁻¹ s⁻¹.
Taken in the same sequence, the figures for “SPIN-agnetis (SPIN homolog from S. agnetis) (natural protein)” were 41.8 nM, 0.00236 s⁻¹ and 56400 M⁻¹ s⁻¹.
With B1, the dissociation constant Kd was 15.9 nM, the koff was 0.00316 s⁻¹ and the kon was 201000 M⁻¹ s⁻¹.
